Patent publication US20160185837A1 (AstraZeneca / MedImmune, published 2016)
Numbering of substitutions follows the chain as printed. Ends that are not written are not given here.

T1: mouse GIP receptor (mouse, UniProt Q0P543 19-460)
T1 sequence (looked up): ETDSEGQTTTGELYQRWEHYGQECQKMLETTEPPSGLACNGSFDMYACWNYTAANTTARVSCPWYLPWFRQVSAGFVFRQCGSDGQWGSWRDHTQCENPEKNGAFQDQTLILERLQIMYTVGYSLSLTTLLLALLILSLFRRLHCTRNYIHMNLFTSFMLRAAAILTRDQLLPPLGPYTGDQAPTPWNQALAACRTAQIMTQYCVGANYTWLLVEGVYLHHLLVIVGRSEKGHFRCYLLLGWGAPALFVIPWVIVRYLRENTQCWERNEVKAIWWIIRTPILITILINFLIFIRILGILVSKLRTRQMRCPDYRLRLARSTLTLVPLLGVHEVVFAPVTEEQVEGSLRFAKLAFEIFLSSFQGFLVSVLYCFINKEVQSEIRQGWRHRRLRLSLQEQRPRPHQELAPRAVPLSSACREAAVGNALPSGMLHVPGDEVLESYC

T2: human GIP receptor (human, UniProt P48546 22-466)
T2 sequence (looked up): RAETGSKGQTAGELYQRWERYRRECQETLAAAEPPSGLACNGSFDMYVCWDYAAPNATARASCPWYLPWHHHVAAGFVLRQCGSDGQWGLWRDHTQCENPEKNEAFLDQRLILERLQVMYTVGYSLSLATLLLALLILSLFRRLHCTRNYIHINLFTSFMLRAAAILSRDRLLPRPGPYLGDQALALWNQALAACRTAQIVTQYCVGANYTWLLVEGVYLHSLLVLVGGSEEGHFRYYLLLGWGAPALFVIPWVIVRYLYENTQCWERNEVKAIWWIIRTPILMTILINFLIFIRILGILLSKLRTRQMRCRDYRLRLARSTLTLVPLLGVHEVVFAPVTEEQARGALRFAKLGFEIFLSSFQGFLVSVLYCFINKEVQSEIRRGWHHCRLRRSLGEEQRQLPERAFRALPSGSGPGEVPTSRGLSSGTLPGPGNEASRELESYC

B1: IP255 (Fc fusion)
chain: YSEGTFTSDYSKLLEEEAVRLFIEWLKNGTGGGGGSGGGGSGGGGSGGGGSATHTCPPCPAPEF
B2: IP234 (Fc fusion)
chain: YSEGTFTSDYSKLLEEEAVRLFIEWLVKGPGGGGGSATHTCPPCPAPEF
modifications: cysteine pairing not given here; also: fused to IgG1-TM Fc
B3: IP421 (Fc fusion)
chain: HGEGTFTSDLSKQMEEECVRLFIEWLKNGGPSSGAPPPGCGSGGGGSGGGGSGGGGSGGGGSGGGGSGGGGSGGGGSACPPC
B4: IP423 (Fc fusion)
chain: YSEGTHTSDLRILLEEEAVRLFIEFLLAGGGSGGGGSGGGGSGGGGSGGGGSGGGGSGGGGSGGGGSACPPC
B5: IP239 (Fc fusion)
chain: YSEGTFTSDYSKLLEEEAVRLFIEWLVKGPAAAGGSGSTASSGSGSATGGGGAACPPCPAPEF
B6: IP252 (Fc fusion)
chain: YSEGTFTSDYSKLLEEEAVRLFIEWLVKGPGGGGGSGGGGSGGGGSAESKYGPPCPPCPAPEAA
B7: IP265 (Fc fusion)
chain: B1 chain with K27V, N28K, T30P, G32K
B8: IP172 (Fc fusion)
chain: HGEGTFTSDVSSYMERQAIDEFIAWLLAGAAAGGSGSTASSGSGSATGGGGAATHTCPPCPAPEF
B9: IP229 (Fc fusion)
chain: YSEGTFTSDYSKLLEEEAVRLFIEWLLAGAAAGGSGSTASSGSGSATGGGGAATHTCPPCPAPEF
B10: IP281 (Fc fusion)
chain: YSEGTFTSDYSKLLEEEAVRLFIEWLVKGPGGGGGSGGGGSGGGGSGGGGSACPPC
B11: IP283 (Fc fusion)
chain: YSEGTFTSDYSKLLEEEAVRLFIEWLVKGPGGGGGGGATHTCPPC
B12: IP284 (Fc fusion)
chain: YSEGTFTSDYSKLLEEEAVRLFIEWLVKGPGGGGGGGGGGGGATHTCPPC
B13: IP285 (Fc fusion)
chain: YSEGTFTSDYSKLLEEEAVRLFIEWLVKGPGGGGGGGGGGGGGGGGGGGGGGGATHTCPPC
B14: IP286 (Fc fusion)
chain: YSEGTFTSDYSKLLEEEAVRLFIEWLVKGPGGGGGGGGGGGGGGGGGGGGGGGGGGGATHTCPPC
B15: IP290 (Fc fusion)
chain: YSEGTFTSDYSKLLEEEAVRLFIEWLVKGPGGGGGGGGGGGGGGGGGGGGACPPC
B16: IP254 (Fc fusion)
chain: YSEGTFTSDYSKLLEEEAVRLFIEWLLAGNGTGGGGSGGGGSGGGGSGGGGSATHTCPPCPAPEF
B17: IP256 (Fc fusion)
chain: YSEGTFTSDYSKLLEEEAVRLFIEWLLAGGHNITQGGGGGSGGGGSGGGGSGGGGSATHTCPPCPAPEF
B18: IP410 (Fc fusion)
chain: B4 chain with H6F, D9L, L10Y, L13H, L14K, F25K
B19: IP411 (Fc fusion)
chain: B15 chain with S2G
B20: IP415 (Fc fusion)
chain: B4 chain with Y1H, E3Q, H6F, L10Y, R11S, I12K, L13I, F25W
B21: IP416 (Fc fusion)
chain: B4 chain with H6F, L10Y, R11S, I12K, F25W
B22: IP210 (Fc fusion)
chain: YSEGTFTSDLSKLLEEEAVRLFIEWLVKGPAAAGGSGSTASSGSGSATGGGGAATHTCPPCPAPEF
B23: IP211 (Fc fusion)
chain: B22 chain with L10Y, K12S, L13Y, L14M
B24: IP198 (Fc fusion)
chain: HGEGTFTSDVSSYMERQAIDEFIAWLLKGGAAAGGSGSTASSGSGSATGGGGAATHTCPPCPAPEF
B25: IP206 (Fc fusion)
chain: B24 chain with R16A, A18S, D20R, L27V, G30P, A32P, A33P
B26: IP214 (Fc fusion)
chain: B8 chain with R16A, A18K, L27V, A28K, A31P, A32P
B27: IP215 (Fc fusion)
chain: B8 chain with R16S, A18L, I19V, L27V, A28K
B28: IP175 (Fc fusion)
chain: B8 chain with R16S, A18L, I19V, D20R, L27V, A28K

The binders below were run against human glucagon receptor (human, UniProt P47871 26-477) (assay: cell-based or functional assay).
For B1, the “cAMP EC50” value was over 4600 nM. For B2, the “cAMP EC50” value was over 15000 nM. B3 was tested, and the “cAMP EC50” value was over 106 nM. In the case of B4, the “cAMP EC50” value is reported as over 34.2 nM. For B5, the “cAMP EC50” value was over 990 nM. In the case of B6, the “cAMP EC50” value is reported as over 3200 nM. For B7, the “cAMP EC50” value was over 13000 nM. In the case of B8, the “cAMP EC50” value is reported as over 15000 nM. In the case of B9, the “cAMP EC50” value is reported as 28 nM. B10 was tested, and the “cAMP EC50” value was 3800 nM. With B11 the “cAMP EC50” value was over 17000 nM. For B12, the “cAMP EC50” value was 18000 nM. With B13 the “cAMP EC50” value was 1600 nM. For B14, the “cAMP EC50” value was 920 nM. B15 was tested, and the “cAMP EC50” value was over 2590 nM. B16 was tested, and the “cAMP EC50” value was 160 nM. For B17, the “cAMP EC50” value was over 420 nM. B18 was tested, and the “cAMP EC50” value was over 7.99 nM. B19 was tested, and the “cAMP EC50” value was over 631 nM. For B20, the “cAMP EC50” value was 0.018 nM. With B21 the “cAMP EC50” value was 3.4 nM.

The binders below were run against T1, mouse GIP receptor (assay: cell-based or functional assay).
B3 was tested, and the “cAMP EC50” value was over 106 nM. For B4, the “cAMP EC50” value was 12 nM. For B19, the “cAMP EC50” value was over 631 nM. In the case of B20, the “cAMP EC50” value is reported as 5.6 nM. B21 was tested, and the “cAMP EC50” value was 1.1 nM.

Each binder was assayed against human GLP-1 receptor (human, UniProt P43220 24-463) (assay: cell-based or functional assay).
In the case of B1, the “cAMP EC50” value is reported as 0.22 nM. B2 was tested, and the “cAMP EC50” value was 0.74 nM. B3 was tested, and the “cAMP EC50” value was 3 nM. B4 was tested, and the “cAMP EC50” value was over 34.2 nM. With B5 the “cAMP EC50” value was 0.088 nM. For B22, the “cAMP EC50” value was 0.18 nM. For B23, the “cAMP EC50” value was 0.23 nM. B6 was tested, and the “cAMP EC50” value was 0.19 nM. With B7 the “cAMP EC50” value was 0.1 nM. In the case of B8, the “cAMP EC50” value is reported as 0.057 nM. In the case of B24, the “cAMP EC50” value is reported as 0.042 nM. In the case of B25, the “cAMP EC50” value is reported as 0.084 nM. For B26, the “cAMP EC50” value was 0.075 nM. In the case of B27, the “cAMP EC50” value is reported as 0.05 nM. For B28, the “cAMP EC50” value was 0.051 nM. With B9 the “cAMP EC50” value was 0.15 nM. With B10 the “cAMP EC50” value was 0.087 nM. With B11 the “cAMP EC50” value was 0.56 nM. For B12, the “cAMP EC50” value was 0.2 nM. For B13, the “cAMP EC50” value was 0.076 nM. With B14 the “cAMP EC50” value was 0.072 nM. With B15 the “cAMP EC50” value was 0.14 nM. In the case of B16, the “cAMP EC50” value is reported as 0.53 nM. For B17, the “cAMP EC50” value was 0.4 nM. For B18, the “cAMP EC50” value was over 7.99 nM. In the case of B19, the “cAMP EC50” value is reported as 0.42 nM. B20 was tested, and the “cAMP EC50” value was 0.038 nM. With B21 the “cAMP EC50” value was 0.1 nM.

What follows are binders tested against T2, human GIP receptor (assay: cell-based or functional assay).
B1 was tested, and the “cAMP EC50” value was 0.07 nM. For B2, the “cAMP EC50” value was 0.043 nM. B5 was tested, and the “cAMP EC50” value was 0.008 nM. With B22 the “cAMP EC50” value was 0.019 nM. With B23 the “cAMP EC50” value was 0.5 nM. B6 was tested, and the “cAMP EC50” value was 0.024 nM. In the case of B7, the “cAMP EC50” value is reported as 0.015 nM. With B8 the “cAMP EC50” value was 16 nM. In the case of B24, the “cAMP EC50” value is reported as 6.3 nM. With B9 the “cAMP EC50” value was 0.0062 nM. For B10, the “cAMP EC50” value was 0.014 nM. For B11, the “cAMP EC50” value was 0.049 nM. For B12, the “cAMP EC50” value was 0.039 nM. In the case of B13, the “cAMP EC50” value is reported as 0.0087 nM. With B14 the “cAMP EC50” value was 0.008 nM. With B15 the “cAMP EC50” value was 0.018 nM. With B16 the “cAMP EC50” value was 0.026 nM. For B17, the “cAMP EC50” value was 0.037 nM. B18 was tested, and the “cAMP EC50, hGIPr (C3) line” value was over 7.99 nM.
